Measurements published in patent publication US20030138440A1 (published 2003).
Ends that are not written are not given here.

B1: chimeric fusion protein with the JUN-D-LI domain (other, not shown: large carriers)
chain: LSRIEEKLKTIKSQLTEIASTLSLIREQLAQ
modifications: also: domain of chimeric fusion protein, fusion partner and linker not given here
B2: chimeric fusion protein with the ATF-1-II domain (other, not shown: large carriers)
chain: IKSIENRIAVIENQIKTIIEEIKTIKDLISN
modifications: also: domain of chimeric fusion protein, fusion partner and linker not given here
B3: chimeric fusion protein with the CJUN-LI domain (other, not shown: large carriers)
chain: LARIEEKLKTIKAQLSEIASTLNMIREQLAQ
modifications: also: domain of chimeric fusion protein, fusion partner and linker not given here
B4: chimeric fusion protein with the JUN-D-LL domain (other, not shown: large carriers)
chain: LSRLEEKLKTLKSQLTELASTLSLLREQLAQ
modifications: also: domain of chimeric fusion protein, fusion partner and linker not given here
B5: chimeric fusion protein with the CJUN-IL domain (other, not shown: large carriers)
chain: IARLEEKIKTLKAQISELASTINMLREQIAQ
modifications: also: domain of chimeric fusion protein, fusion partner and linker not given here
B6: chimeric fusion protein with the ATF-1-LI domain (other, not shown: large carriers)
chain: LKSIENRLAVIENQLKTIIEELKTIKDLLSN
modifications: also: chimeric fusion protein, fusion partner and linker not given here
notes: copies left open
B7: chimeric fusion protein with the CJUN-LL domain (other, not shown: large carriers)
chain: LARLEEKLKTLKAQLSELASTLNMLREQLAQ
modifications: also: domain of chimeric fusion protein, fusion partner and linker not given here
B8: chimeric fusion protein with the ATF2-LI domain (other, not shown: large carriers)
chain: LQSIEKKLEDISSLLGQIQSELTLIRNELAQ
modifications: also: domain of chimeric fusion protein, fusion partner and linker not given here
B9: chimeric fusion protein with the ATF-1-IL domain (other, not shown: large carriers)
chain: IKSLENRIAVLENQIKTLIEEIKTLKDLISN
modifications: also: domain of chimeric fusion protein, fusion partner and linker not given here
B10: chimeric fusion protein with the ATF2-LL domain (other, not shown: large carriers)
chain: LQSLEKKLEDLSSLLGQLQSELTLLRNELAQ
modifications: also: domain of chimeric fusion protein, fusion partner and linker not given here
B11: chimeric fusion protein with the ATF-1-LL domain (other, not shown: large carriers)
chain: LKSLENRLAVLENQLKTLIEELKTLKDLLSN
modifications: also: domain of chimeric fusion protein, fusion partner and linker not given here
B12: chimeric fusion protein with the CREB-Pa-LI domain (other, not shown: large carriers)
chain: LMSIEKKLEEITQTLMQIQNELSMIKNELAQ
modifications: also: chimeric fusion protein, fusion partner and linker not given here
notes: also called CREB-LI
B13: chimeric fusion protein with the ATF2-IL domain (other, not shown: large carriers)
chain: IQSLEKKIEDLSSLIGQLQSEITLLRNEIAQ
modifications: also: domain of chimeric fusion protein, fusion partner and linker not given here
B14: chimeric fusion protein with the CREB-Pa-IL domain (other, not shown: large carriers)
chain: IMSLEKKIEELTQTIMQLQNEISMLKNEIAQ
modifications: also: domain of chimeric fusion protein, fusion partner and linker not given here
notes: also called CREB-IL
B15: chimeric fusion protein with the CREB-Pa-LL domain (other, not shown: large carriers)
chain: LMSLEKKLEELTQTLMQLQNELSMLKNELAQ
modifications: also: domain of chimeric fusion protein, fusion partner and linker not given here
notes: also called CREB-LL

These molecules were tested against ICAM-1 on HeLa cells (human) (UniProt P05362) (assay: cell-based or functional assay).
ICAM-1 on HeLa cells (human), sequence (P05362 28-532): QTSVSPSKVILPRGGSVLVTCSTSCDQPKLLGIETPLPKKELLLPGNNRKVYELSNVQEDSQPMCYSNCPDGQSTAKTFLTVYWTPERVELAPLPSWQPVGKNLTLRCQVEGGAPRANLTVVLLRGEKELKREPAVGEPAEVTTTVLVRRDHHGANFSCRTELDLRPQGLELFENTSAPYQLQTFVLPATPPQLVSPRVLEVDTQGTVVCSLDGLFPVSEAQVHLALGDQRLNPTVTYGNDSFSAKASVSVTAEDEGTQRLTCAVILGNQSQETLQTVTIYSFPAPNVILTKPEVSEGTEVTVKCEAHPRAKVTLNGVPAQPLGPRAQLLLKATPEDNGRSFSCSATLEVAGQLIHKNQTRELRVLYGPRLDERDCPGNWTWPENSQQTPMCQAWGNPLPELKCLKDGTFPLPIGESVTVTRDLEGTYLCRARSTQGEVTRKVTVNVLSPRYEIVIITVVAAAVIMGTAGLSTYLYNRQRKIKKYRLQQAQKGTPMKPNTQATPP
“anti-ICAM-1 monoclonal antibody RR/1 (Chemicon)” was tested, and the EC50, protection of HeLa cells from HRV15 infection was > 10 nM.

Molecular target: the molecule itself
Experiment: self-association of the chimeric protein; size exclusion HPLC
Method: By correlation with sedimentation velocity data, the multimerization state of additional ATFα-based domains was determined by size exclusion HPLC. HPLC size exclusion chromatography was performed on a column selected to resolve species of chimeric multimers ranging from dimers through pentamers. The selected column also resolved species including the Fab moiety of the chimera: Tetramers (6.5S by ultracentrifugation) consistently eluted from the column at 13.7±0.1 min.; trimers (5.5S) eluted at 14.0±0.1; and dimers (4.5S) eluted at 15.0±0.1 min. Data on additional domains is listed in Table 7 along with those determined by sedimentation.
B1: binds.
B2: binds.
B3: binds.
B4: binds.
B5: binds.
B6: binds.
B7: binds.
B8: binds.
B9: binds.
B10: binds.
B11: binds.
B12: binds.
B13: binds.
B14: binds.
B15: binds.
